Measurements taken from US6361968.

Assays:
P16220 = assay: thermal melt, homodimerization (FIG. 3)
P05412 = assay: thermal melt, homodimer (FIG. 4)
[1] = CD thermal melts, homodimer

B1: CREB (unmodified) (protein)
chain: MASSPALPTQPAEEAARKREVRLMKNREAARECRRKKKEYVKCLENRVAVLENQNKTLIEELKALKDLYCHKSD
Tm (P16220): Tm=47 °C

B2: c-Jun (unmodified) (protein)
chain: PLSPIDMESQERIKAERKRMRNRIAASKCRKRKLERIARLEEKVKTLKAQNSELASTANMLREQVAQLKQKVMNHVNSGCQLMLTQQLQTF
Tm (P05412): homodimerization of unmodified c-Jun had a melting temperature of 29.4 °C

B3: C/EBP bZIP domain (GCN4-C/EBP chimeric protein) (protein)
chain: SEYQPSLFALNPMGFSPLDGSKSTNENVSASTSTAKPMVGQLIFDKFIKTEEDPGKAKKSVDKNSNEYRVRRERNNIAVRKSRDKAKQRNVETQQKVLELTSDNDRLRKRVEQLSRELDTLRGIFRQLPESSLVKAMGNCA
Tm decrease in 50 mM KCl against 150 mM KCl [1]: less stable by 4 °C in 50 mM KCl compared with 150 mM KCl
